In IntAct's records for PubMed 23977161:

B1: Prelamin-A/C (Homo sapiens), P02545 (parent)
chain: METPSQRRATRSGAQASSTPLSPTRITRLQEKEDLQELNDRLAVYIDRVRSLETENAGLRLRITESEEVVSREVSGIKAAYEAELGDARKTLDSVAKERARLQLELSKVREEFKELKARNTKKEGDLIAAQARLKDLEALLNSKEAALSTALSEKRTLEGELHDLRGQVAKLEAALGEAKKQLQDEMLRRVDAENRLQTMKEELDFQKNIYSEELRETKRRHETRLVEIDNGKQREFESRLADALQELRAQHEDQVEQYKKELEKTYSAKLDNARQSAERNSNLVGAAHEELQQSRIRIDSLSAQLSQLQKQLAAKEAKLRDLEDSLARERDTSRRLLAEKEREMAEMRARMQQQLDEYQELLDIKLALDMEIHAYRKLLEGEEERLRLSPSPTSQRSRGRASSHSSQTQGGGSVTKKRKLESTESRSSFSQHARTSGRVAVEEVDEEGKFVRLRNKSNEDQSMGNWQIKRQNGDDPLLTYRFPPKFTLKAGQVVTIWAAGAGATHSPPTDLVWKAQNTWGCGNSLRTALINSTGEEVAMRKLVRSVTVVEDDEDEDGDDLLHHHHGSHCSSSGDPAEYNLRSRTVLCGTCGQPADKASASGSGAQVGGPISSGSSASSVTVTRSYRSVGGSGGGSFGDNLVTRSYLLGNSSPRTQSPQNCSIM

Tests used:
SYNE2, Q8WXH0-1 [1] = variants of: B1; conditions: with SYNE2, Q8WXH0-1
SYNE2, Q8WXH0-1 [2] = variants of: B1; conditions: with SYNE2, Q8WXH0-1; remark: listed apart in the source

effect of a mutation on the interaction (SYNE2, Q8WXH0-1 [1])	effect of a mutation on the interaction (SYNE2, Q8WXH0-1 [2])	Variant
decreasing interaction strength	with no effect	L421P
increasing interaction strength	with no effect	V415I
decreasing interaction strength	with no effect	G413C
increasing interaction strength	with no effect	R401C
decreasing interaction strength	with no effect	R419C
decreasing interaction strength	with no effect	R427G
increasing interaction strength	with no effect	G411D
